Values quoted from earlier work, collected in article PMC11497281.

Biological target: Asp27 (UniProt position 27, WNLPADLAWFK)

Dihydrofolate reductase (DHFR) (Escherichia coli)
pKa: approximately 6.5
